Experimental data as given in PMC6978714 (2019).
No end group written: not given here.

Molecular target: recombinant HLA-DRB1*01:01 protein (HLA-DR α chain with DRB1*01:01 β chain) (human)

| Binder | Kd [nM] |
| --- | --- |
| DAQGTLSKIFKLGGRDSRSGSPMAR (also: biotinylated, position not given here) [chemically synthesized biotinylated peptide MBP 146-170] | 52 |
| TQDENPVVHFFKNIVTPRTPPPSQ (not fully specified; also: thioredoxin-fused, end not given here, biotinylated chemically (EZ-Link Sulfo-NHS-LC-biotin, 1:20), position not given here) [thioredoxin-fused MBP 81-104 (MBP epitope library), biotinylated] | 103 |
| DAQGTLSKIFKLGGRDSRSGSPMAR (not fully specified; also: thioredoxin-fused, end not given here, biotinylated chemically (EZ-Link Sulfo-NHS-LC-biotin, 1:20), position not given here) [thioredoxin-fused MBP 146-170 (MBP epitope library), biotinylated] | 101 |
| TQDENPVVHFFKNIVTPRTPPPSQ (also: biotinylated, position not given here) [chemically synthesized biotinylated peptide MBP 81-104] | 22 |
